The values that follow come from patent US20210139569A1 (STRESSMARQ BIOSCIENCES, published 2021).

Assay [1] has as its target T1, α-synuclein peptide AA 1-30, BSA conjugate (human, N-terminus conjugated to a C-6 spacer (Ahx), which is conjugated to an N-terminal cysteine; conjugated to BSA).
T1 construct: also called 1-30aa
Description: ELISA on BSA-conjugated peptide (FIG. 10). For orientation: In an ELISA, binding on a coated surface is turned into a signal by an enzyme label.
Description: (§1) ELISA conditions for epitope mapping: Nunc® MaxiSorp™ 98 well plates ELISA plates were coated with peptide conjugated to BSA at 0.1 μg/well in 100 μl/well CCB (pH 9.6) overnight at 4° C. The plates were then blocked with 3% skim milk powder in PBS for 3 hours at room temperature. 100 μL/well antibody (1 μg/mL) was added and incubated for 1 hour at 37° C. Secondary Antibody 1:10,000 Goat anti-mouse IgG/IgM (H+L)-HRP at 100 uL/well in PBS-Tween for 1 hour at room temperature. All washing steps performed for 30 mins with PBS-Tween. […] Development time: 15 minutes. Plates were read at 450 nm.

The target of assay [2] is T2, α-synuclein peptide AA 21-50, BSA conjugate (human, N-terminus conjugated to a C-6 spacer (Ahx), which is conjugated to an N-terminal cysteine; conjugated to BSA).
T2 construct: also called 21-50aa
Description: ELISA on BSA-conjugated peptide (FIG. 10).
Description: as §1

Assay [3] has as its target T3, α-synuclein peptide AA 41-70, BSA conjugate (human, N-terminus conjugated to a C-6 spacer (Ahx), which is conjugated to an N-terminal cysteine; conjugated to BSA).
T3 construct: also called 41-70aa
Briefly: ELISA on BSA-conjugated peptide (FIG. 10).
Description: as §1

Assay [4] addresses α-synuclein peptide AA 81-110, BSA conjugate (human, N-terminus conjugated to a C-6 spacer (Ahx), which is conjugated to an N-terminal cysteine; conjugated to BSA). Briefly: ELISA on BSA-conjugated peptide (FIG. 10).
Description: as §1
Assay [5] deals with α-synuclein peptide AA 121-140, BSA conjugate (human, N-terminus conjugated to a C-6 spacer (Ahx), which is conjugated to an N-terminal cysteine; conjugated to BSA). Briefly: ELISA on BSA-conjugated peptide (FIG. 10).
Description: as §1
Assay [6] has as its target α-synuclein peptide AA 101-130, BSA conjugate (human, N-terminus conjugated to a C-6 spacer (Ahx), which is conjugated to an N-terminal cysteine; conjugated to BSA). Briefly: binding to overlapping peptides (FIG. 10).
Description: as §1

Chain of α-synuclein peptide AA 81-110, BSA conjugate (human, N-terminus conjugated to a C-6 spacer (Ahx), which is conjugated to an N-terminal cysteine; conjugated to BSA) (peptide, as listed by the source): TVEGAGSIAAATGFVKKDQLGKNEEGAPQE
Chain of α-synuclein peptide AA 101-130, BSA conjugate (human, N-terminus conjugated to a C-6 spacer (Ahx), which is conjugated to an N-terminal cysteine; conjugated to BSA) (peptide, as listed by the source): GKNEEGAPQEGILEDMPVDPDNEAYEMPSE

B1: monoclonal antibody 2F11 (hybridoma ATCC #PTA-124174) (antibody, V domains shown)
VH: EVQLQQSGAELVRSGASVKLSCTASGFNIKDYYMFWVKQRPEQGLEWIGWNDPENGDTEYAPKFQGKATMTADTSSNTAYLQLSSLTSEDTAVYYCNAWDGNYVMDYWGQGTSVTVSS
VL: QIVLTQSPAIMSASLGERVTMTCTASSSVSSSYLHWYQQKPGSSPKLWIYSTSNLASGVPPRFSGSGSGTSYSLTISSMEAEDAATYYCHQYHRSPPMYTFGGGTKLE
notes: Mouse monoclonal, IgG1 kappa; Used as hybridoma supernatant or Protein G purified; with gold-labelled detection for electron microscopy; also called clone 2F11; 2F11 antibody
As to B1, the binding result is given as “no binding (tested: 1 µg/mL antibody)” in assay [1]; “no binding (tested: 1 µg/mL antibody)” in assay [2]; “no binding (tested: 1 µg/mL antibody)” in assay [3]; “no binding (tested: 1 µg/mL antibody)” in assay [4]; “no binding (tested: 1 µg/mL antibody)” in assay [5]; “binds” in assay [6].
